Assay results: article PMC10876215, “Nucleosome conformation dictates the histone code” (eLife, 2024)
pEC50: −log10 of the molar value.

Legend:
[1] = target: H3K4me3K9acK14acK18ac histone peptide (dCypher, biotinylated); test: AlphaScreen or HTRF; dCypher on the Alpha platform; biotinylated histone peptide (100 nM final) on streptavidin donor beads, 6His-tagged Query titrated and held on Ni-NTA acceptor beads; 50 mM Tris pH 7.5, 50 mM NaCl, 0.01% Tween-20, 0.01% BSA, 0.0004% Poly-L Lysine, 1 mM TCEP; room temperature; relative EC50 (EC50^rel)
[2] = target: H4K5acK8acK12acK16ac histone peptide (dCypher, biotinylated); test: AlphaScreen or HTRF; dCypher on the Alpha platform; biotinylated histone peptide (100 nM final) on streptavidin donor beads, GST-tagged Query titrated and held on glutathione acceptor beads; 50 mM Tris pH 7.5, 50 mM NaCl, 0.01% Tween-20, 0.01% BSA, 0.0004% Poly-L Lysine, 1 mM TCEP; room temperature; relative EC50 (EC50^rel), not an equilibrium Kd

Substance | fold weaker than for the H3K4me3 peptide [1] [fold] | pEC50 [2]
BPTF 6His-PHD (domain or fragment) | 2 | 
GST-BRD4-BD1 (domain or fragment) |  | 9.15
